According to the nanobody polyreactivity screen of Harvey et al. (2022):

Test: yeast display, Sf9 membrane polyspecificity reagent, FACS + sequencing; frameworks hold sequencing errors
How it was run: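 Nanobodies came from a synthetic yeast display library in Saccharomyces cerevisiae BJ5465, induced with galactose for 36–48 hours and stained for 1 hour at 4 °C with 10% biotinylated, detergent-solubilized Sf9 membrane reagent. Cells were enriched on streptavidin microbeads and then FACS-sorted, with low and high (top ~1%) gates set on anti-HA fluorescence for expression and streptavidin fluorescence for reagent binding. Each polyreactivity label reflects the gate a clone came from. Genes were amplified by colony PCR, sequenced by MiSeq 2 × 250 and filtered by CDR length.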
With “QVQLVESGGGLVQAGGSLRISCAASGFIFYYAMGWYRQAPGKERELVAAISSGSSTYADSVKGRFTISRDNAKNTVYLQMNSMKPEDTAVYYCAAKTQNAYYWGQGTQVTVSS” the “polyreactivity (PSR sort gate)” value was “low polyreactivity”. For “QVQLVESGGGLVQAGGSLRLSCAASGNTIRVYAMGWYRQAPGKERELVAAITWSGSRTYYADSVKGRFTISRDNAKNTVYLQMNSLKPEDTAVYYCAARFVRPAYNYWGQGTQVTVSS”, the “polyreactivity (PSR sort gate)” value was “high polyreactivity”. For “QVQHVESGVGLVQAGGRLRLSCAASGRTFSSNAMGWYRKAPGKERELVAAISSSGGRTYYADSVKGRFTISRDNAKNTVYLDMNSLKQEDTAVYYCAVVYFPIWASYPYWWEYDYWGHGTQVTVSS”, the “polyreactivity (PSR sort gate)” value was “high polyreactivity”. In the case of “QVQLVESGGGLVQAGGSLRLSCAASGSTFPPYAMGWYRQAPGKERELVADITRRGASTYYADSVKGRFTISRDNAKNTVYLQMNSLKPEDTAVYYCNAGRSRRYRIGRYYYWGQGTQVTVSS”, the “polyreactivity (PSR sort gate)” value is reported as “high polyreactivity”. With “QVQLQESGGGLVQAGGSLRLSCAASGSIFDYVSMGWYRQAPGEERELVVTITLGSNTYYADSVKGRFTISSDIAKNTVYLQMNSLNPEDTAVYYCAASALWGYVYPYWGLGTQVTVSS” the “polyreactivity (PSR sort gate)” value was “high polyreactivity”. With “QVQLVESGGGLVQAGGSLRLSCAASGRIFTIYAMGWYRQAPGKERELVAGIRGGGSTNYADSVKGRFTISRDNAKNTVYLLMNSLKPEDTAVYYCAAEVRRYVIVPYYYWGQGTQVTVSS” the “polyreactivity (PSR sort gate)” value was “high polyreactivity”. For “QVQLVESGGVLVQEGGSLRLSCADSGRIFYSNAMGWYRQAPGKERELVAAISYSGGRTYYADSVKGRFTISRDNAKNTVYLQMNSLIPEDTAVYYCAARYAWGYVDPGDYWGQGTQVTVSS”, the “polyreactivity (PSR sort gate)” value was “high polyreactivity”. For “QVQLVESGGALVQAGGSLRLSCAASGSIFRFYAMGWYRQAPGKERELVAAISWSGGSTYYADSVKGRFTISRDNAKNTVYLQMNSLKPEDTAVYYCNTRYYGGFDSWGQGTQVTVSS”, the “polyreactivity (PSR sort gate)” value was “high polyreactivity”. For “QVQLVESGGGLVQAGGSLRLSCAASGSTFARYAMGWYRQAPGKERELVAVITRSGGSTYYADSVKGRFTISRDNAKNTVYLQMNSLKPEDTDVYYCNKYGYKGGVGYDYWGQGTQVTVSS”, the “polyreactivity (PSR sort gate)” value was “high polyreactivity”. For “QVQLVESGGGLVQAGGSLRLSCAASGNTFSYYAMGWYRQAPGKERELVAAISWRGGSTYYADSVKGRFTISRDNAKNTVYLQMNSLKPEDTAVYYCAADLYWASLWYVGAAYGYEYWGQGTQVTVSS”, the “polyreactivity (PSR sort gate)” value was “low polyreactivity”. With “QVQLVESGGGLVQAGGSLRLSCAASGFTFSYSAMGWYRPAPGKERELVAAISSGGRTYYADSVKGRFTISRDNAKNTVYLQMNSLKPEDTAVYYCNAEPDQYTLRSITNDEDYWGQGTQVTVSS” the “polyreactivity (PSR sort gate)” value was “low polyreactivity”. For “QVQLVESGGGLVQAGGSLRLSCAASGRNFCVYAMGWYRHDHGKERELVAAISYDDGDTFYADSVKGRFTISRDNAKNTVYLQMNSLKPDDTAVYYCDAEGYSYIQSDLDYCGQGTQVTVSS”, the “polyreactivity (PSR sort gate)” value was “high polyreactivity”. For “QVQLVETGGGLVQAGGSLRLSCAASGSTFSRNAMGWYRQAPGKEREFVAAISWSGSSTYYADSVKGRFTISRDNEKNTVYLQMNSLKPEDTAVYYCAARETWYPYYWMGYWGQGAQVTVSS”, the “polyreactivity (PSR sort gate)” value was “high polyreactivity”. With “QVQLVESGGGLVQAGGSLRLSCAASGRIFTRNVMGWYRQAPGKERELVAAITTNGGSTYYADSVKGRFTISRDNAKNTVYLQMNSLKPEDTAVYYCAKRTVHYTWVYYWGQGTQVTVSS” the “polyreactivity (PSR sort gate)” value was “high polyreactivity”. With “QVQLVESGGGLVQAGGRLRLSCAASGSIFIGYAMGWYRPAPGKERELVAAISGSGSSTYYADSVKGRFTISRDNAKNTVYLQMNSLKPEDTAVYYCAARTYSRFTASTYYYWGQGTQVTVSS” the “polyreactivity (PSR sort gate)” value was “high polyreactivity”. With “QVQLVESGGGLVQAGGSLRLSCAASGFTFIGYAMGWSRPAPGKERELVAAITWRGGRTYYADSVKGRFSISRDNAKNTVYLQMNSLKTEETAVYYCAADGYTVGNSYYWGHGTQVTVSS” the “polyreactivity (PSR sort gate)” value was “high polyreactivity”. In the case of “QVQLVESGGGLVQAGGSLRLSCAASGFIFYSYAMGWYRQAPGKERELVATITSGGSTNYADSVKGRFTISRDNAKNTVYLQMNSLKPEDTAVYYCAARYYPFWARRNRYDYWGQGTQVTVSS”, the “polyreactivity (PSR sort gate)” value is reported as “high polyreactivity”. With “QVQLVESGGGLVQAGGSLRLSCAASGRTFTIYAMGSYRQAPGKERELVAAITRSGGGTYYADSVKGRFTISRDNAKNTVYFQMKSLKPEDTAVYYCARDKHWFYGVIGPEDYWGQGTQVTVSS” the “polyreactivity (PSR sort gate)” value was “low polyreactivity”. With “QVQLVESGGGLVQAGGSLRLSCAASGRTFFRYAMGWYRQAPGKERELVAVITRGGSTYYADSVKGRFTISRDNAKNTVYLQMNSLKPEDTAVYYCNADGRVQRKYDYWGQGTQVTVSS” the “polyreactivity (PSR sort gate)” value was “high polyreactivity”. In the case of “QVQLVESGGGLVQAGGSLRLSCAASGRTFLSNAMGWYRQAPGKERELVAAISNGDNTYYADSVKGRFTISRDNAKNTVVLQMNSLKPEDTAVYYCAADQYWSWIYYPVVEYDYWGEGTQVTVSS”, the “polyreactivity (PSR sort gate)” value is reported as “low polyreactivity”. In the case of “QVQLVESGGGLVQAGGSLRLSCAASGSIFQGNAMGWYTQAPGKERELVAAITYSGGSTYYADSVKGRFTISRDNAKNTVYLQMNSLKAEDTAVYYCNTTLRDSRQYVDRAQYNRYDYWGQGTQVTVSS”, the “polyreactivity (PSR sort gate)” value is reported as “low polyreactivity”. For “QVQLVESGGGLVQSGGSLRLSCAACGGTFYRYAMGWYRQAPGKERELVAAITSGSSTYYADSVKGRFTISRDNAKNTVYLQMNSLTPEDTAVYYCAAARYSRLSRTRPGKYGYWGQGTQVTVST”, the “polyreactivity (PSR sort gate)” value was “low polyreactivity”. With “QVQLVESGGGLDQAGGRLRLSCAASGRTFIVFAMGWYRQAPGKESELVAGITRGSTNYADSVKGRFTISRDNAKNTVYLQMNSLKPEDTEVYYCATEVYIWPWGTVYAFEYDYWGQGTQVTVSS” the “polyreactivity (PSR sort gate)” value was “high polyreactivity”. In the case of “QVQLVESGGGLVQAGGSLRLSCAASGSTFSIYAMGWYRQAPGKERELVAAISSDSTYYADSVKGRFTISRDNAKNSVYLQMNSLKPEDTAVYYCAADPYFPKYYYWGQGTQVTVSS”, the “polyreactivity (PSR sort gate)” value is reported as “low polyreactivity”. With “QVQLVESGGGLVQAGGSLRLSCAASGISFSYYAMGWSRQAPGKERELVAAISSSGSTNYADSVKGRFTISRDNAKNTVYLQMNSLKPEDTAVYYCNAGYGRRVYVYSFKLRYNYWGQGTQVTVSS” the “polyreactivity (PSR sort gate)” value was “high polyreactivity”. In the case of “QVPLVESGGGLVQAGGSLRLSCAASGSTFVRYAMGWYRQAPGKERELVAGISRVGNTYYADSVKGRFTISRDNAKNTVYLQMNSLKPEDTAVYYCARSQAVYDGWFAKFGYWGQGTQVTVSS”, the “polyreactivity (PSR sort gate)” value is reported as “high polyreactivity”. In the case of “QVQLVESGAGLFQAGGSLRLSCAPSGSIFAPNDMGWYRQAPGKERELVAAITSSGGRTYYADSVKGRFTISRDNAKNTVYLQMNSLKPEDTAVYYCAADHGYQYGYWGQGTHVTVSS”, the “polyreactivity (PSR sort gate)” value is reported as “low polyreactivity”. With “QVQLVESGGGLVQAGGSLRLSCAASGRIFPFYAMGWYRQAPGKERELVAAITQSGGSTYYADSVKGRFTISRDNAKNTVYLQMNSLKPEDTAVYYCAADYGSFLYGYPTYDYWGQGTQVTVSS” the “polyreactivity (PSR sort gate)” value was “low polyreactivity”. For “QVQLVESGGGLVQAGGSLRLSCAASGSTFSYNAMGWYRQAPGKERELVAAISFISGSTYYADSVKGRFTISRDNAKNTVYLQMNSLKPEDTAVYYCNAGRTRRRDYYWQYDYWGQGTQVTVSS”, the “polyreactivity (PSR sort gate)” value was “high polyreactivity”. For “QVQLVESGGGLVQAGGSLRLSCAASGSIFRYYAMGWYRQAPGKERELVAVITGTGGSTYYADSVKGRFTISRDNAKNTVYLQMNSLKPEDTAVYYCNVYRPWGWFDYWGQGTQVTVSS”, the “polyreactivity (PSR sort gate)” value was “high polyreactivity”. With “QVQLVESGGGLVQAGGSLRLRCAASGSIFFYYVMGLSRQAPGKERELVAVISSGGGSTYYADSVKGRFTISRDNAKYTVYLQMNSLKPEDTAVYYCAAGTYYKFYYWGQGTQVTESS” the “polyreactivity (PSR sort gate)” value was “high polyreactivity”.
